# Experiment: yeast display, Sf9 membrane polyspecificity reagent, FACS + sequencing; frameworks hold sequencing errors
# Summary of the method: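 Nanobodies from a synthetic yeast display library (Saccharomyces cerevisiae BJ5465), induced 36–48 hours with galactose, were stained 1 hour at 4 °C with 10% biotinylated, detergent-solubilized Sf9 membrane reagent, enriched on streptavidin microbeads, then FACS-sorted. Anti-HA (expression) and streptavidin (reagent binding) fluorescence set low and high (top ~1%) gates. Polyreactivity labels come from the gate of origin. Genes were colony-PCR amplified, MiSeq 2 × 250 sequenced and filtered by CDR length.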
row,Sequence,polyreactivity (PSR sort gate)
1,QVQLVESGGGLVQAGGSLRLSCAASGRTFTQYAMRWYRQAPGKERELVAAISWRGGSTYYADSVKGRFTISRDNAKNTVYLQMNSLKPEDTAVYYCAKRYFRGYPLYDYWGQGTQVTVSS,high polyreactivity
2,QVQLVESGGGLVQAGGSLRLSCAASGRTFTRYAMGRYRQAPGKERELVASISGSGGRTNYADSVKGRFTISRDNAKNTVYLQMNSLKPEDTAVYYCAARYRTWFGYWGQGTQVTVSS,high polyreactivity
3,QVQLVESGGGLVQAGGSLRLSCAASGRTFTRYAMGWYRQAPGKERELVAAISWSGGSTYYADSVKGRFTISRDNAKNTVYLQMNSLKPEDTAVYYCNAYYYYPEFNYWGQGTQVTVSS,high polyreactivity
4,QVQLVESGGGLVQAGGSLRLSCAASGRTFTSYAMGWYRQAPGKERELVAAITRGGRTNYADSVKGRFTISRDNAQNTVYLQMNSLKPEDTAVYYCNADGPGYAAKYYWKYDYWGQVTQVTVSS,low polyreactivity
5,QVQLVESGGGLVQAGGSLRLSCAASGRTFTSYPMGWYRQAPGKERELVAVITRRGGSTSYADSVKGRFTISRDNAKHTVYLQMNSLKPEDTAVYYCAAKRTWPDVKYIRYGYWGQGTQVTVSS,high polyreactivity
6,QVQLVESGGGLVQAGGSLRLSCAASGRTFTTNAMGWYSQARGKERELVAAINSGGSTNYADSVKGRFTISRDNAKNTVYLQMNRLKPEDTAVYYCAKRQRDYSSVFEVDYWGQGTQVTVSS,low polyreactivity
7,QVQLVESGGGLVQAGGSLRLSCAASGRTFTTYAMGWYRQAPGKERELVAAISGSGGSTYYADSVKGRFTISRDNAKNTVYLQMNSLKPEDTAVYYCATAYYYHGGYYYPYDDYWGQGTQVTVSS,low polyreactivity
8,QVQLVESGGGLVQAGGSLRLSCAASGRTFTTYAMGWYRQAPGKERELVAAITSGGSTNYADSVKGRFTISRDNAKNTVYLQMNSLKPEDTAVYYCAARFRVYTYSQRHWREFGYWGQGTQVTVSS,high polyreactivity
9,QVQLVESGGGLVQAGGSLRLSCAASGRTFTTYTMGWYRQAPGKERELVAAISWGGTSTYYADSVKGRFTISRDNAKNTVYLQMNSLKPDDTAVYYCNVLERGPGGPDDSWGQGTQVTVSS,low polyreactivity
10,QVQLVESGGGLVQAGGSLRLSCAASGRTFTVNAMGWYRQAPGKEREFVATISYRGGSTYADSVKGRFTISRDNAKNNVYLQMNSLKPEDTAVYYCAARSFWPYYGGDYDYWGQGNQVTVSS,high polyreactivity
11,QVQLVESGGGLVQAGGSLRLSCAASGRTFTVYAMGGSRQAPGKERELVAGIRRGDSTYYADSVKGRFTISRDNAKNSVDFQMNSLKPEDTAVYYCNARSSGRSYYYWGQGTQVTVSS,high polyreactivity
12,QVQLVESGGGLVQAGGSLRLSCAASGRTFTVYAMGWYRQAPGKEREFVATISWSGGRTYYADSVKGRFTISRDNAKNTVYLQMNSLKPEDTAVYYCSAQEYTTRFYFNRDYWGQGTQVTVSS,low polyreactivity
13,QVQLVESGGGLVQAGGSLRLSCAASGRTFTVYTMGWYRQAPGKERELVAVISTGGRTYYADSVKGRFTISRDNAMNTVYLQMNSLKPEDTAVYYCAAKFTREYYWGQGTQVTVSS,high polyreactivity
14,QVQLVESGGGLVQAGGSLRLSCAASGRTFTWNAMGWYRQAPGKERELVADITNNGGSTYYADSVKGRFTISRDNAKNTVYLQMNSLKPEDTAVYYCAKRRNYWFSFDYWGQGTQVTVSS,low polyreactivity
15,QVQLVESGGGLVQAGGSLRLSCAASGRTFTYNAMGWYRQAPGKERELVAAITYRGGSTYYADSVKGRFTISRDNSNNTVYLQMNSLKPEDTAVYYCAASVSYYRYNTPHYYYWGQGTQVTVSS,high polyreactivity
16,QVQLVESGGGLVQAGGSLRLSCAASGRTFTYNAMGWYRQAPGKERELVASIRRSGTITYYADSVKGRFTISRDNAKNTVYLQMNSLKPEDTAVYYCAARYPWYRYYSWGQGTQVTVSS,high polyreactivity
17,QVQLVESGGGLVQAGGSLRLSCAASGRTFTYNTMGWYRQAPGKERELVAAISSRGGRTYYADSVKGRFTISRDNAKNTVYLQMNSLKPEDTAVYYCNADYRYPQYYHRTWIRYDYWGQGTQVTVSS,high polyreactivity
18,QVQLVESGGGLVQAGGSLRLSCAASGRTFTYNTMGWYRQAPGKERELVAAISSSGGSTYYADSVKGRFTISRDNAKNTVYLQMNSLKPEDTAVYYCAKRYFSSSRYYYWGQGTQVTVSS,high polyreactivity
19,QVQLVESGGGLVQAGGSLRLSCAASGRTFTYYAMGWYRQAPGKERELVAAITSGGRTYYADSVKGRFTISRDNAKNTVYLQMNSLKPEDTAVYYCAARRIRDYYRSYDYWGQGTQVTVSS,high polyreactivity
20,QVQLVESGGGLVQAGGSLRLSCAASGRTFTYYAMGWYRQAPGKERELVAAITWSGGSTYYADSVKGRFTISRDNAKNTVYLQMNSLKPEDTAVYYCAAVDADYYYWGQGTQVTVSS,high polyreactivity
21,QVQLVESGGGLVQAGGSLRLSCAASGRTFTYYAMGWYRQAPGKERELVATIRSGGTTNYADSVKGRFTISRDNAKNTVYLQMNSLKPEDTAVYYCARVLSYVWYYRDPYQYPDYDYWGQGTQVTVSS,low polyreactivity
22,QVQLVESGGGLVQAGGSLRLSCAASGRTFVDYAMGWYRQAPGKERELVAAINTGGRTKYADSVKGRFTISRDNAKITVYLQMNSLKPEDTAVYYCAARKQYGGVRGDYWGQGTQVTVSS,high polyreactivity

row,Sequence,polyreactivity (PSR sort gate)
1,QVQLVESGGGLVQAGGSLRLSCAASGRTFVDYVMGWYRQAPGKERELVAAISRSGSTYYADSVKGRFTISRDNAKNTVYLQMNSLKPEDTAVYYCNVEYLRTYYILSDYWGQGTQVTVSS,low polyreactivity
2,QVQLVESGGGLVQAGGSLRLSCAASGRTFVFNAMGWYRQAPGKERELVAAITKNGGSTYYADSVKGRFTISRDNAKNPVYLQMNSLKPEDTAVYYCAGRRGYPFYYWGQGTQVTVSS,low polyreactivity
3,QVQLVESGGGLVQAGGSLRLSCAASGRTFVFYAMGWYRQAPGKERELVAAISSSGGSTYYADSVKGRFTISRDNAKNTVYLQMNSLKPEDTAVYYCNADFYSVGSQYGYWGQGTQVTVSS,high polyreactivity
4,QVQLVESGGGLVQAGGSLRLSCAASGRTFVGNAMGWYRQAPGKERELVATITGSGGRTYYADSVKGRFTISRDNAKNTVYLQMNSLKPEDTAVYYCAAKRSRYRYDYWGQGTQVTVSS,high polyreactivity
5,QVQLVESGGGLVQAGGSLRLSCAASGRTFVGNAMGWYRQAPGKERELVATITRRGGSTYYADSVKGRFTISRDNAKNTVYLQMNSLKPEDTAVYYCSAGSQPGRKYYYWGQGTQVTVSS,high polyreactivity
6,QVQLVESGGGLVQAGGSLRLSCAASGRTFVGNGKGWYRLAPGKERELLASISFSGGAGTYYADSVKGRFTISRDNAKYTVYLQMNSLKPEDTAVYYCAKRYVTPTYRRYYWGPGTQVTVSS,high polyreactivity
7,QVQLVESGGGLVQAGGSLRLSCAASGRTFVGYAMGWYRQAPGKEREFVAAISYRGGRTYYADSVKGRFTISRDNAKNTVYLQMNSLKPEDTAVYYCAAEYRSNHGGVDYWGQGTQVTVSS,high polyreactivity
8,QVQLVESGGGLVQAGGSLRLSCAASGRTFVGYAMGWYRQAPGKERELVAAISIGGGRTYYADSVKGRFTISRDNAKNTVYLQMNSLKPEDTAVYYCAAVFRQSNRHGGYDYWGQGTQVTVSS,high polyreactivity
9,QVQLVESGGGLVQAGGSLRLSCAASGRTFVGYPMGWCRQAPGKERELVAAIDLSDGSTSYADSVKGRFTISRDHAKNTVYLQMISLTPEHTAVYYCAKTSANVYAGAHDSWGQGTQVTVSS,low polyreactivity
10,QVQLVESGGGLVQAGGSLRLSCAASGRTFVGYVMGWDRQAPGKERELVAAISTSGGRTYYADSVKGRFTISRDNAKNTGYLQMNSLKPEDTAVYYCNAVSKQPIGYEYWGQGSQVTVSS,high polyreactivity
11,QVQLVESGGGLVQAGGSLRLSCAASGRTFVHYTMGWYRQAPGKERELVAAISGTGTSTYYADSVKGRFTISRDNAKNTVYLQMNSLKPEDTAVYYCARDPFFGFHIGYPRRDYWGQGTQVTVSS,low polyreactivity
12,QVQLVESGGGLVQAGGSLRLSCAASGRTFVIYAMGWYRQAPGKERELVAAISKGGGSTYYADSVKGRFTISRDNAKNTVYLQMNSLKPEDTAVYYCAAGYGTYYQYSRFDYWGQGTQVTVSS,high polyreactivity
13,QVQLVESGGGLVQAGGSLRLSCAASGRTFVIYDMGWYRQAHGKERELVAGITRSGGSTYADSVKGRFTISRDNAKNTVYLQMNSLKPEDTAVYYGARRKLYHKSPYDYWGQGTQVTVSS,low polyreactivity
14,QVQLVESGGGLVQAGGSLRLSCAASGRTFVKNTMGWYRQATGKERELVAAISSSGGSTYYADSVKGRFTISRHNAKNTVYLQMNSLNPEDTAVYFCAVSYPYKHAGGWYAYNYWGQGTQVTVSS,high polyreactivity
15,QVQLVESGGGLVQAGGSLRLSCAASGRTFVLNVMGWYRQAPGKERELVADITSGDNTYYADSVKGRFTISRDNAKNTVYLQRNSLKPEDTAVYYCAADGWFYFGYDYWGQGTQVTVSS,low polyreactivity
16,QVQLVESGGGLVQAGGSLRLSCAASGRTFVLYTMGWYRQAPGKERELLAVGSTYYADSVKGRFTISRDNAKNTVYLQMNSLKPEDTAVYYCAVDLYWSYFNGALGYRYYYWGQGTQVTVSS,high polyreactivity
17,QVQLVESGGGLVQAGGSLRLSCAASGRTFVLYTMGWYRQAPGKERELVAAISGSGGRSYYADSVKGRFTISRDHAKNSVYLQMNSLKPEDTAVYYCAAYGQGLPLYGYWGQGTQVTVSS,high polyreactivity
18,QVQLVESGGGLVQAGGSLRLSCAASGRTFVNYALGWYRQAPGKERELVAAISGGGGTNYADSVKGRFTISRDNAKNTVYLQMNSLKPEDTAVYYCNAVPSQHDEFDYWGQGTQVTVSS,low polyreactivity
19,QVQLVESGGGLVQAGGSLRLSCAASGRTFVPYAMGWYRQAPGKEREFVAAISSRVASTYYADSVKGRFTISRDNAKNTVYLQMNSLKPEDTAVYYCARTNPAYSIYDYWGQGTQVTVSS,low polyreactivity
20,QVQLVESGGGLVQAGGSLRLSCAASGRTFVPYAMGWYRQAPGKERELVARIDSSGGSTYYADSVKGRFTISRDNAKNTVYLQMNSLKPEDTAVYYCAAVFYYWSLRSYYWGQGTQVTVSS,high polyreactivity
21,QVQLVESGGGLVQAGGSLRLSCAASGRTFVQNAMGWYRQAPGKERELVASIRYRDGSTYYADSVKGRFTISRDNAKNTVYLQMNSLKPEDTAVYYCAAYLPGWELREYGYWGQGTQVTVSS,high polyreactivity

# Reference: the nanobody polyreactivity screen of Harvey et al. (2022)
